Test results taken from article PMC5173319, “Crenactin forms actin-like double helical filaments regulated by arcadin-2” (eLife, 2016).

Columns and labels:
[1] = target: Pyrobaculum calidifontis arcadin-1 (Pyrobaculum calidifontis); test: AUC; sedimentation equilibrium, arcadin-1 at 49.8, 99.5 and 199 µM, 7800, 11800 and 15,000 rpm, 20°C, 25 mM Tris-HCl pH 8.0, 100 mM NaCl, 1 mM EDTA; idealised single-species model
[2] = target: Pyrobaculum calidifontis crenactin (Pyrobaculum calidifontis) (UniProt A3MWN5); test: SPR; crenactin immobilised by amide coupling on CM5 chip (~2300 RU), Biacore T200, PBS-0.005% Tween 20, 20°C; arcadin-1 in 1:3 dilution series from 36.7 µM; equilibrium response fitted to a single site model
Pyrobaculum calidifontis crenactin (Pyrobaculum calidifontis), sequence (A3MWN5 whole entry): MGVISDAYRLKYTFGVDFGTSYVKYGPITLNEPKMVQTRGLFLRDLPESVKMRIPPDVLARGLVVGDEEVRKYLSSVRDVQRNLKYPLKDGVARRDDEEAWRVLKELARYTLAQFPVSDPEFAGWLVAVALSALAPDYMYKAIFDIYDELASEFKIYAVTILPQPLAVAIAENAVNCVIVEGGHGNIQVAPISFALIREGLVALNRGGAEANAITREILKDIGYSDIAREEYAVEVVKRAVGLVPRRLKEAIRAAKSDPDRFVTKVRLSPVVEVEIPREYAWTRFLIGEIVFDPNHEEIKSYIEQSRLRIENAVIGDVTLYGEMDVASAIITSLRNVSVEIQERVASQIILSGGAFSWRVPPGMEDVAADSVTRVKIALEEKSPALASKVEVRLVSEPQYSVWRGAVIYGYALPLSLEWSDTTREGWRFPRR

## Pyrobaculum calidifontis arcadin-1 (natural protein)
[1]
  stoichiometry N: 8
[2]
  Kd: 15 µM
